The text below walks through data of patent US20240343803A1 (SHANDONG SIMCERE BIOPHARMACEUTICAL, published 2024).

For orientation: EC50 means the concentration at which the effect is half-maximal. In general, IC50 refers to the concentration that inhibits the measured activity by half.

For test [1], the target named is T1, Fusion protein of extracellular domain of human TIGIT and mouse IgG2a Fc fragment (human TIGIT ECD-mFc) (human).
T1 construct: The entry includes the signal peptide (limits not recoverable) and the mouse IgG2a Fc
T1 chain: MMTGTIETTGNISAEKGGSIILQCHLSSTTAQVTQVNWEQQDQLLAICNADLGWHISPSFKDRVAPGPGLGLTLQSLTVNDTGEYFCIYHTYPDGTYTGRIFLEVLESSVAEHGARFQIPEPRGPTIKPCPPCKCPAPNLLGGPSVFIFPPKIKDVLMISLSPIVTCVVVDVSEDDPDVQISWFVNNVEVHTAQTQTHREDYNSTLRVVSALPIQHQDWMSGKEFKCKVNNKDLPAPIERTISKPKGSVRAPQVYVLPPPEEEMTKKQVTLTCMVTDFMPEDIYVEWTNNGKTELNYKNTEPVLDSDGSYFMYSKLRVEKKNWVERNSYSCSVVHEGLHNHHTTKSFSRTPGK
Nature of the test: ELISA, human TIGIT ECD-mFc. As for the experimental part: (§1) After discarding the coating solution, the plate was added with 5% skim milk powder (Sangon Biotech, CAT #A600669-0250)-PBS, 250 μL/well, and incubated at 37° C. for 2-4 hours. […] The enzyme-labeled plate was then washed with 0.05% Tween 20-PBS for 3 times on the Microplate Washer, added with tested antibodies diluted to 13 nM with 1% BSA (diluted by 3-fold serial dilution for 12 concentration points), 50 μL/well, and incubated at 37° C. for 1.5-2 hours. The plate was washed with 0.05% Tween 20-PBS for 3 times on the Microplate Washer, then added with HRP enzyme-labeled antibodies (Merck, CAT #AP113P) diluted with 1% BSA (Sangon Biotech, CAT #A500023-0100)-PBS at a dilution ratio of 1:5000, 50 μL/well, and incubated at 37° C. for 1 hour. After washing 3 times with 0.05% Tween 20-PBS on the Microplate Washer, the plate was added with TMB chromogenic solution (KPL, CAT #52-00-03), 50 μL/well, and incubated at room temperature for 7-10 minutes. 1M HCL, 50 μL/well, was then added into the plate to terminate the reaction, and the OD450 nm was read by a microplate reader (Biotek, Powerwave HT). […] (b) The binding activity of anti-TIGIT chimeric antibodies to CHO-K1 human TIGIT (cells with high, medium and low expression levels) and CHO-KI cynomolgus monkey TIGIT detected by FACS.
(§2) The affinity of the above humanized antibodies with human TIGIT ECD-His is detected by BIAcore, and with reference to the methods of Example 4 (a), (b), and (d), the binding activity of the above humanized antibodies to human TIGIT ECD-mFc, CHO-K1 human TIGIT, CHO-K1 cynomolgus monkey TIGIT and cynomolgus monkey TIGIT ECD-mFc, and the effect of the humanized antibodies blocking the binding between human TIGIT ECD-mFc and CHO-K1 CD155 are detected, the results are shown in Table 18.
(In general: An ELISA detects its analyte on a solid surface through an enzyme-linked reagent.)

For test [2], the target named is T2, Full-length human TIGIT on CHO-K1 cells (CHO-K1 human TIGIT) (human, UniProt Q495A1 22-244).
T2 construct: NCBI XP_024309156.1; the entry includes the signal peptide (limits not recoverable); The strain (high, medium, low) is named under assay; also called high expression strain 1D2; medium expression strain 2D10
T2 sequence: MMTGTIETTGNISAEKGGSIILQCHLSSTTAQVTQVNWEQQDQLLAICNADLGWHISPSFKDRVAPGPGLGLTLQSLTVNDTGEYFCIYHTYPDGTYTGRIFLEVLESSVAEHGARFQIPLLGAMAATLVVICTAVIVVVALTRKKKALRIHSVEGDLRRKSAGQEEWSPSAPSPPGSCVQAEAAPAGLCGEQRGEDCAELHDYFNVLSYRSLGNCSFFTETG
Briefly: cell binding, CHO-K1 human TIGIT high expression strain. As for the experimental part: (§3) The collected cells were washed once with PBS (Hyclone, CAT #SH30256), resuspended to 2×10⁵/50 μL with 1% BSA-PBS. The antibodies were diluted to 80 nM with 1% BSA-PBS (diluted by 3-fold serial dilution for 12 concentration points). The 50 μL cells were then mixed with 50 μL diluted antibodies, and then incubated at 4° C. for 60 minutes. […] After washing twice with PBS, the cell samples were resuspended with 1% BSA-PBS, 100 μL/well and then analyzed by flow cytometry (BD, Canto II). […] [0298] (c) The effect of anti-TIGIT chimeric antibodies blocking the interaction between Bio-CD155-His and CHO-K1 human TIGIT high expression cell strains detected by FACS
as §2

The target in test [3] is T3, Fusion protein of extracellular domain of human TIGIT and human IgG1 Fc fragment (human TIGIT ECD-hFc) (human).
T3 construct: The entry includes the signal peptide (limits not recoverable) and the human IgG1 Fc
T3 sequence (chain, as listed by the source limits assumed): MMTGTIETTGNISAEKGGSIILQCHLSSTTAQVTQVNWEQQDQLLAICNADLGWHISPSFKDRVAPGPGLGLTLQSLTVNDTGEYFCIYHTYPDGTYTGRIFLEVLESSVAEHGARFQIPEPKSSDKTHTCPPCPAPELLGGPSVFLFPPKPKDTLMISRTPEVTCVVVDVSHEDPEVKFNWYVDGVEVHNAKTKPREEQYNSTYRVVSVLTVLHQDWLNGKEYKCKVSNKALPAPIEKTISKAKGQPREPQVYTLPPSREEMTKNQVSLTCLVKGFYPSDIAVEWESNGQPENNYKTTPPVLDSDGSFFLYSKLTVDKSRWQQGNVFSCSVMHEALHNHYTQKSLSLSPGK
Briefly: blocking of TIGIT ECD-hFc binding to CHO-K1 CD155 cells. Put shortly: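 Cell-based ELISA on CHO-K1 CD155 cells, cultured overnight, fixed and blocked with 5% skim milk-PBS. Antibodies were premixed for 0.5 h with human TIGIT ECD-hFc (working concentration 30 ng/mL), then added and held at 37° C for 1.5-2 h. Bound TIGIT was detected with HRP secondary antibody (1:5000, 37° C, 1 h) and TMB, read as OD450 nm. IC50 came from the inhibition curves.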

The target of test [4] is T4, Full-length cynomolgus monkey TIGIT on CHO-K1 cells (CHO-K1 cynomolgus monkey TIGIT) (cynomolgus monkey).
T4 construct: NCBI XP_015300911.1
T4 sequence (chain, as listed by the source limits assumed): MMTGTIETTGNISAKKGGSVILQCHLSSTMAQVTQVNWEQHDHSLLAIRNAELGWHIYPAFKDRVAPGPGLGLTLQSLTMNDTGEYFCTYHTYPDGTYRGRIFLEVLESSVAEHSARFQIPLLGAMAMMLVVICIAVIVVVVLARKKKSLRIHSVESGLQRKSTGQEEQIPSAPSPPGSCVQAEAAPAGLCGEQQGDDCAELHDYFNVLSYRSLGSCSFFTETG
Nature of the test: cell binding, CHO-K1 cynomolgus monkey TIGIT. As for the experimental part:
as §3, §2

Test [5] addresses T5, Fusion protein of extracellular domain of cynomolgus monkey TIGIT and mouse IgG2a Fc fragment (cynomolgus … (cynomolgus monkey)).
T5 construct: The entry includes the signal peptide (limits not recoverable) and the mouse IgG2a Fc
Briefly: ELISA, cynomolgus monkey TIGIT ECD-mFc. As for the experimental part:
as §1, §2

T5 sequence (chain, as listed by the source limits assumed): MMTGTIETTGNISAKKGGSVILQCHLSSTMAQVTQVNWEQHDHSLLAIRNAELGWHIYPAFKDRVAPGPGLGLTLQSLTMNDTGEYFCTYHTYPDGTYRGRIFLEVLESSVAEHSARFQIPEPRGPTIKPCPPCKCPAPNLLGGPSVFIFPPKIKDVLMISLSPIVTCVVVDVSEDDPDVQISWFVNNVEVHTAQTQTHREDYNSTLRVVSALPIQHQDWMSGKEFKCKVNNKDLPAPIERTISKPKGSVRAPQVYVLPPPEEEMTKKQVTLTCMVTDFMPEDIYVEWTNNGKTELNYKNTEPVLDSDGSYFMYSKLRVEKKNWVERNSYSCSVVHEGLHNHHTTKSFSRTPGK

B1: TIGIT-002-H1L1 (antibody, V domains shown)
VH: EVQLQESGPGLVKPSETLSLTCAVSGYSITSDSWNWIRQPPGKGLEWIGYISYSGNTYYNPSLKSRVTISRDTSKNQFSLKLSSVTAADTAVYYCARLDFSNYGGAVDYWGQGTTVTVSS
VL: DIVMTQTPLSLSVTPGQPASISCKASQNVRTAVAWYLQKPGQSPQLMIYSASYRYTGVPDRFSGSGSGTDFTLKISRVEAEDVGVYYCQQYYTTPWTFGGGTKVEIK
notes: Humanized anti-TIGIT antibody
Consider B1, for which the EC50 in test [1] stood at 0.0155 nM; in test [2], 0.0201 nM; in test [4], 0.187 nM; in test [5], 0.209 nM. Moreover, the IC50 in test [3] stood at 0.526 nM.

B2: TIGIT-002-H3L1 (antibody, V domains shown)
VH: EVQLQESGPGLVKPSETLSLTCAVSGYSITSDSWNWIRQPPGKKLEWMGYISYSGNTYYNPSLKSRITISRDTSKNQFSLKLSSVTAADTAVYYCARLDFSNYGGAVDYWGQGTTVTVSS
VL: DIVMTQTPLSLSVTPGQPASISCKASQNVRTAVAWYLQKPGQSPQLMIYSASYRYTGVPDRFSGSGSGTDFTLKISRVEAEDVGVYYCQQYYTTPWTFGGGTKVEIK
notes: Humanized anti-TIGIT antibody
Consider B2, for which the EC50 in test [1] turned out to be 0.012 nM; in test [2], 0.0204 nM; in test [4], 0.232 nM; in test [5] it was 0.0253 nM. In test [3], the IC50 came out at 0.459 nM.

B3: TIGIT-002-H4L2 (antibody, V domains shown)
VH: EVQLQESGPGLVKPSETLSLTCAVSGYSITSDSWNWIRQPPGKKLEYIGYISYSGNTYYNPSLKSRVTISRDTSKNQFSLKLSSVTAADTAVYYCARLDFSNYGGAVDYWGQGTTVTVSS
VL: DIVMTQTPLSLSVTPGQPASISCKASQNVRTAVAWYQQKPGQSPQLMIYSASYRYTGVPDRFSGSGSGTDFTLKISRVEAEDVGVYYCQQYYTTPWTFGGGTKVEIK
notes: Humanized anti-TIGIT antibody
Consider B3, for which the EC50 in test [1] amounted to 0.0179 nM; in test [2], 0.0294 nM; in test [4], 0.0474 nM; in test [5], 0.0254 nM. The molecule further came in with an IC50 in test [3] of 0.44 nM.

B4: TIGIT-002-H3L2 (antibody, V domains shown)
VH: EVQLQESGPGLVKPSETLSLTCAVSGYSITSDSWNWIRQPPGKKLEWMGYISYSGNTYYNPSLKSRITISRDTSKNQFSLKLSSVTAADTAVYYCARLDFSNYGGAVDYWGQGTTVTVSS
VL: DIVMTQTPLSLSVTPGQPASISCKASQNVRTAVAWYQQKPGQSPQLMIYSASYRYTGVPDRFSGSGSGTDFTLKISRVEAEDVGVYYCQQYYTTPWTFGGGTKVEIK
notes: Humanized anti-TIGIT antibody
Take B4: the EC50 was determined as 0.017 nM in test [1], 0.0329 nM in test [2], 0.113 nM in test [4] and 0.0218 nM in test [5]. Besides, in test [3], the IC50 was 0.394 nM.

B5: TIGIT-002-H4L1 (antibody, V domains shown)
VH: EVQLQESGPGLVKPSETLSLTCAVSGYSITSDSWNWIRQPPGKKLEYIGYISYSGNTYYNPSLKSRVTISRDTSKNQFSLKLSSVTAADTAVYYCARLDFSNYGGAVDYWGQGTTVTVSS
VL: DIVMTQTPLSLSVTPGQPASISCKASQNVRTAVAWYLQKPGQSPQLMIYSASYRYTGVPDRFSGSGSGTDFTLKISRVEAEDVGVYYCQQYYTTPWTFGGGTKVEIK
notes: Humanized anti-TIGIT antibody
For B5, the EC50 in test [1] came out at 0.0164 nM; in test [2], 0.0253 nM; in test [4], 0.0543 nM; in test [5] it was 0.0206 nM. In test [3], this molecule had an IC50 of 0.445 nM.

B6: TIGIT-002-H1L2 (antibody, V domains shown)
VH: EVQLQESGPGLVKPSETLSLTCAVSGYSITSDSWNWIRQPPGKGLEWIGYISYSGNTYYNPSLKSRVTISRDTSKNQFSLKLSSVTAADTAVYYCARLDFSNYGGAVDYWGQGTTVTVSS
VL: DIVMTQTPLSLSVTPGQPASISCKASQNVRTAVAWYQQKPGQSPQLMIYSASYRYTGVPDRFSGSGSGTDFTLKISRVEAEDVGVYYCQQYYTTPWTFGGGTKVEIK
notes: Humanized anti-TIGIT antibody
In the case of B6, the EC50 in test [1] turned out to be 0.0158 nM; in test [2], 0.0167 nM; in test [4], 0.221 nM; in test [5], 0.0811 nM. The same molecule yielded an IC50 in test [3] of 0.421 nM.

B7: TIGIT-002-H2L2 (antibody, V domains shown)
VH: EVQLQESGPGLVKPSETLSLTCAVSGYSITSDSWNWIRQPPGKKLEWIGYISYSGNTYYNPSLKSRVTISRDTSKNQFSLKLSSVTAADTAVYYCARLDFSNYGGAVDYWGQGTTVTVSS
VL: DIVMTQTPLSLSVTPGQPASISCKASQNVRTAVAWYQQKPGQSPQLMIYSASYRYTGVPDRFSGSGSGTDFTLKISRVEAEDVGVYYCQQYYTTPWTFGGGTKVEIK
notes: Humanized anti-TIGIT antibody
Turning to B7, the EC50 in test [1] was found to be 0.0222 nM; in test [2], 0.0215 nM; in test [4], 0.12 nM; in test [5], 0.0554 nM. In test [3], this molecule gave an IC50 of 0.56 nM.
